# Measured values from US7122342 (ZymoGenetics, dated 2006).
# T1: PAR4 mutant R68A, expressed on COS cells
# T1 sequence: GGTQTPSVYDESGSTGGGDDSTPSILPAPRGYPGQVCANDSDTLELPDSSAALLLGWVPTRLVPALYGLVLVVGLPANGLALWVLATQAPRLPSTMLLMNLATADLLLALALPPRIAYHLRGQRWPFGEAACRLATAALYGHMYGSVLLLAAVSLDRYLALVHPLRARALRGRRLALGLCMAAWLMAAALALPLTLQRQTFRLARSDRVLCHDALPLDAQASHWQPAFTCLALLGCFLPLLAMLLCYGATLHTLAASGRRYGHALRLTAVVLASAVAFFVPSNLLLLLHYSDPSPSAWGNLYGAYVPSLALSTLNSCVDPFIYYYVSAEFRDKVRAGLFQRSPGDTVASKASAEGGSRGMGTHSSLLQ
# T2: protease-activated receptor 4 (PAR4), wild type, expressed on transiently transfected COS-7 cells
# T2 sequence: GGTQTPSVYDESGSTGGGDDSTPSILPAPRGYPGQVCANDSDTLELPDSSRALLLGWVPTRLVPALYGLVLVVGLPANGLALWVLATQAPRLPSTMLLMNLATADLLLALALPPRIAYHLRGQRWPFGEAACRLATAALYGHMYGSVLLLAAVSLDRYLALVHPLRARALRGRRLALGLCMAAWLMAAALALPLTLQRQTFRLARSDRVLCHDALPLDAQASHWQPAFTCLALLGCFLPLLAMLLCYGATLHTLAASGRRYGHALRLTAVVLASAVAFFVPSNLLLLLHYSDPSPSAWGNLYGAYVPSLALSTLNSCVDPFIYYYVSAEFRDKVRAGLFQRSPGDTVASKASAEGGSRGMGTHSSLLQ
# T3: protease-activated receptor 4 (PAR4), wild type, expressed on transiently transfected COS-7 cells (human, UniProt Q96RI0 18-385)
# T3 sequence: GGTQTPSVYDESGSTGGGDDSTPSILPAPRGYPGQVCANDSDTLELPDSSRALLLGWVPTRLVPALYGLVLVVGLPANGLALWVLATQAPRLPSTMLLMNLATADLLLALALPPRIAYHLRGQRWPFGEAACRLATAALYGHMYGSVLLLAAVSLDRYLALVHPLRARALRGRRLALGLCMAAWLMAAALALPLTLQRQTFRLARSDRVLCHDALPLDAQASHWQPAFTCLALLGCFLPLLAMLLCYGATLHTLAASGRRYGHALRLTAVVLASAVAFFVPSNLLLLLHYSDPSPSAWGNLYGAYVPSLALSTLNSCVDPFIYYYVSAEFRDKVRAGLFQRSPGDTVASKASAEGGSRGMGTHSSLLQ
# Test system: T1, PAR4 mutant R68A, expressed on COS cells
# Test: not given
# Sequence of factor IXa (P00740 47-191): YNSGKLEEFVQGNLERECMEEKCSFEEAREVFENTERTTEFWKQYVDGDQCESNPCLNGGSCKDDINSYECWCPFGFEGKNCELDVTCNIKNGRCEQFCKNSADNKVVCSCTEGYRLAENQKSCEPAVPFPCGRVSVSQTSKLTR
# Sequence of factor IXa (P00740 227-461): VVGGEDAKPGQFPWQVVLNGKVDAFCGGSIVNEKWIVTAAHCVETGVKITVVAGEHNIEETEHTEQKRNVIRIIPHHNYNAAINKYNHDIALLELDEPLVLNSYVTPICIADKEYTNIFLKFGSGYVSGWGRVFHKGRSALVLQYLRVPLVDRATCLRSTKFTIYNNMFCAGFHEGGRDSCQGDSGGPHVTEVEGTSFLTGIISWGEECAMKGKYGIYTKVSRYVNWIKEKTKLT
# Sequence of plasmin (P00747 20-580): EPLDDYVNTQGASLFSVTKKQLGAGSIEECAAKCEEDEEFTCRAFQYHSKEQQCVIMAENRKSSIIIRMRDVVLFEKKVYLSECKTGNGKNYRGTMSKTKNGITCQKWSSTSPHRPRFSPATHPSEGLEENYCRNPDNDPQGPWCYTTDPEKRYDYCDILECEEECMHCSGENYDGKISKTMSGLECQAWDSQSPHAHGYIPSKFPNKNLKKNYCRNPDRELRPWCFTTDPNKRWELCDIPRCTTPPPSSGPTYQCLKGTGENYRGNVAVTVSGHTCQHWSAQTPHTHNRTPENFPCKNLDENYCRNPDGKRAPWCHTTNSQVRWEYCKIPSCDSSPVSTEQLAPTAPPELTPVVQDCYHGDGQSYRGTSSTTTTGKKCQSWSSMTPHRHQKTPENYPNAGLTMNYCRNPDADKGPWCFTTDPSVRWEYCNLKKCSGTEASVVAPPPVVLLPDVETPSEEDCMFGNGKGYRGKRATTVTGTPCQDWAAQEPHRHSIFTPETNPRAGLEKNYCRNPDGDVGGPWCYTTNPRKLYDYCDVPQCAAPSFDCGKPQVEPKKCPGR
# Sequence of plasmin (P00747 581-810): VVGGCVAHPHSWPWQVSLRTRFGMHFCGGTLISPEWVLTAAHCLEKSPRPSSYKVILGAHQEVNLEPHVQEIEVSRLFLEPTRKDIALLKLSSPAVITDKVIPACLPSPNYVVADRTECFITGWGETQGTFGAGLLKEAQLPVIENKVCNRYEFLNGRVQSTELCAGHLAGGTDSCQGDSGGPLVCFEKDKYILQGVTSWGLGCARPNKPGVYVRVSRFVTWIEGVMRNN
row,Molecule,"phosphatidylinositol 4,5 diphosphate hydrolysis assay"
1,thrombin (alpha-thrombin),(R68A) had no effect on PAR4 activation by thrombin or trypsin
2,trypsin,(R68A) had no effect on PAR4 activation by thrombin or trypsin

# Test system: T2, protease-activated receptor 4 (PAR4), wild type, expressed on transiently transfected COS-7 cells
# Test: not given
row,Molecule,phosphoinositide hydrolysis (activation of PAR4)
1,chymotrypsin,Chymotrypsin and elastase failed to activate PAR4
2,elastase,Chymotrypsin and elastase failed to activate PAR4
3,factor IXa,had little or no activity against PAR4
4,factor VIIa,had little or no activity against PAR4
5,factor XIa,had little or no activity against PAR4
6,factor Xa,"Small effects, however, were observed with factor Xa at high concentrations (100 nM)"
7,plasmin,had little or no activity against PAR4
8,urokinase,had little or no activity against PAR4

# Biological target: protease-activated receptor 4 (PAR4), wild type, expressed on transiently transfected COS-7 cells (human) (UniProt Q96RI0)
# Test: cell-based or functional assay
row,Molecule,"phosphoinositide hydrolysis, half-maximal concentration (EC50) [nM]"
1,thrombin (alpha-thrombin) (enzyme),5
2,trypsin (enzyme),5

# Biological target: T3, protease-activated receptor 4 (PAR4), …
# Test: cell-based or functional assay
row,Molecule,EC50 of activation of PAR4 on COS cells [nM]
1,"GYPGQV [PAR4 activating peptide, hexapeptide GYPGQV]",~100000
